Assay results published in article PMC10755698.
Read-outs that look alike come from different tables or passages of the source.

Legend:
Assay in all cases: native MS
[1] = molecular target: T1, Lassa virus nucleoprotein NP (wild type) (Lassa virus, AV strain, UniProt Q9DQX7)
[2] = molecular target: T1, Lassa virus nucleoprotein NP (wild type); remark: listed apart in the source
[3] = molecular target: T1, Lassa virus nucleoprotein NP (wild type); remark: listed apart in the source

Binder	binding result [1]	binding result [2]	also measured
UAGGAAUCU (ssRNA) [9 nt RNA]	binds		
ACACAAAGACCC (ssRNA) [12 nt RNA]	binds		
GCCUAGGAUCCACUGUGCGUGUUGU (ssRNA) [25 nt RNA]		binds	
ACCAACACACCAACAACAACCUGUGCG (ssRNA) [27 nt RNA]		binds	
CGGACACACAAAAAGAAA (ssRNA) [18 nt RNA]			binding result [3]: binds
